Test results reported in publication doi:10.1101/116491 (bioRxiv, 2017).

What was measured:
[1] = target: OCP variant devoid of the N-terminal extension, purple fraction, ΔNTE(P) (Synechocystis) (UniProt P74102); experiment: SEC
cross-linking = target: the molecule itself; experiment: cross-linking
[2] = target: T1, Orange Carotenoid Protein, wildtype, His6-tagged, Synechocystis (OCP^WT) (Synechocystis, UniProt P74102 1-317); experiment: cross-linking
T1 sequence: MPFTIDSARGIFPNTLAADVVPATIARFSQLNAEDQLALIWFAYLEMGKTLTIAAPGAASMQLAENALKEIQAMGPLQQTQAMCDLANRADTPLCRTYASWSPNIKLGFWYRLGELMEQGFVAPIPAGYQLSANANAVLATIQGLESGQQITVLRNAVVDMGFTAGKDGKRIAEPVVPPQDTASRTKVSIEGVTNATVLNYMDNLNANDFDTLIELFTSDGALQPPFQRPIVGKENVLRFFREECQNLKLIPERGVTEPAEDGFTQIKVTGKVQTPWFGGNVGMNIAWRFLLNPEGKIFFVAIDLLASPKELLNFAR

[3] = target: T2, OCP variant devoid of the N-terminal extension, orange fraction, ΔNTE(O) (Synechocystis, UniProt P74102 21-317); experiment: SEC
T2 sequence: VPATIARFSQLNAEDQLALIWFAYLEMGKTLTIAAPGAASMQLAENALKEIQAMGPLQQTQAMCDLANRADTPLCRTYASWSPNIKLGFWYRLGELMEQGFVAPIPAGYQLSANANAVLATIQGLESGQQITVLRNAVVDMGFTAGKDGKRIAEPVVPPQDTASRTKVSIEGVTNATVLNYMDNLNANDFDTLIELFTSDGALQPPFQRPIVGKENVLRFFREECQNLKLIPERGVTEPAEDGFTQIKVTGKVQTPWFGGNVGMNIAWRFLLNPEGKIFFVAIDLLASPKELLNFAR

OCP variant devoid of the N-terminal extension, purple fraction, ΔNTE(P) (from UniProt P74102 21-317) (domain or fragment)
stoichiometry N [1]: 2

B1: Fluorescence Recovery Protein (FRP), His6-tagged, Synechocystis (natural protein)
chain: LQTAEAPWSQAETQSAHALFRKAYQRELDGLLATVQAQASQITQIDDLWKLHDFLSAKRHEIDGKYDDRQSVIIFVFAQLLKEGLVQAEELTFLAADKQSKIKALARL
stoichiometry N (cross-linking): 2
stoichiometry N [2]: 1
Kd [3]: < 1 µM
stoichiometry N [3]: 1
